B1: Krueppel-like factor 11 (Homo sapiens), O14901 (parent)
chain: MHTPDFAGPDDARAVDIMDICESILERKRHDSERSTCSILEQTDMEAVEALVCMSSWGQRSQKGDLLRIRPLTPVSDSGDVTTTVHMDAATPELPKDFHSLSTLCITPPQSPDLVEPSTRTPVSPQVTDSKACTATDVLQSSAVVARALSGGAERGLLGLEPVPSSPCRAKGTSVIRHTGESPAACFPTIQTPDCRLSDSREGEEQLLGHFETLQDTHLTDSLLSTNLVSCQPCLHKSGGLLLTDKGQQAGWPGAVQTCSPKNYENDLPRKTTPLISVSVPAPPVLCQMIPVTGQSSMLPAFLKPPPQLSVGTVRPILAQAAPAPQPVFVGPAVPQGAVMLVLPQGALPPPAPCAANVMAAGNTKLLPLAPAPVFITSSQNCVPQVDFSRRRNYVCSFPGCRKTYFKSSHLKAHLRTHTGEKPFNCSWDGCDKKFARSDELSRHRRTHTGEKKFVCPVCDRRFMRSDHLTKHARRHMTTKKIPGWQAEVGKLNRIASAESPGSPLVSMPASA
partner: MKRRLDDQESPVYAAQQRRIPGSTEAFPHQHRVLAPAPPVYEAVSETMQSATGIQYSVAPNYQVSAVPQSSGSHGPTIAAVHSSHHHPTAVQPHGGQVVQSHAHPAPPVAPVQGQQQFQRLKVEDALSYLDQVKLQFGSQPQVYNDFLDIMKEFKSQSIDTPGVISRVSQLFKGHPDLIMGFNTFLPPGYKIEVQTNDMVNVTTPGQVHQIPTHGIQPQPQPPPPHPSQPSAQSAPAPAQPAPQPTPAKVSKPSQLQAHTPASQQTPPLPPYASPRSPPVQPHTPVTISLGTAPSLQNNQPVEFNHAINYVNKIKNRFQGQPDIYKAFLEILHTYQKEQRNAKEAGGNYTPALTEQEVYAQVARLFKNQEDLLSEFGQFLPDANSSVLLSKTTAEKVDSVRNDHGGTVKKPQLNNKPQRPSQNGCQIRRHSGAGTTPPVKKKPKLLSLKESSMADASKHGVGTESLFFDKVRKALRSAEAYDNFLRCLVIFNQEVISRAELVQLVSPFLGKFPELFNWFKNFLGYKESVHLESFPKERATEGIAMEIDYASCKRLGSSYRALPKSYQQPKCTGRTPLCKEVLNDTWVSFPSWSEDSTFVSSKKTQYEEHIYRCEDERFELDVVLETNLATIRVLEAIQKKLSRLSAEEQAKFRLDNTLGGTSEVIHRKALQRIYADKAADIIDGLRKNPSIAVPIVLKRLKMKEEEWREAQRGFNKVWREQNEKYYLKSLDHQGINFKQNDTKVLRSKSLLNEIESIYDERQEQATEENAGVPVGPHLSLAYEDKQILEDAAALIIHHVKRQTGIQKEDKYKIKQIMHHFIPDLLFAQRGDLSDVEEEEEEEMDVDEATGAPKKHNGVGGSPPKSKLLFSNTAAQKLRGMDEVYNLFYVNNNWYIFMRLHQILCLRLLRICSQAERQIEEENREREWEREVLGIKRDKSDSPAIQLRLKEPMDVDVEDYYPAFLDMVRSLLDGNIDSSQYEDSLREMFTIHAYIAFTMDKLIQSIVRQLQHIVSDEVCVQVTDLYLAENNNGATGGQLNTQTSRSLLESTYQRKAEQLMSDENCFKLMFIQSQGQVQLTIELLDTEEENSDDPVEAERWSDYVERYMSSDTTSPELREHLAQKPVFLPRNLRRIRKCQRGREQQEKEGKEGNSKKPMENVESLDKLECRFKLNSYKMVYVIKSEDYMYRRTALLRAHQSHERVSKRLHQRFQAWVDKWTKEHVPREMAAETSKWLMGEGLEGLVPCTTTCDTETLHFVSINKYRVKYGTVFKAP

Variants of: B1
Conditions: with Sin3a
For MHTPDFAGPDDARAVDIMDICESILERKRHDSERSTCSILEQTDMEAVEALVCMSSWGQRSRKGDLLRIRPLTPVSDSGDVTTTVHMDAATPELPKDFHSLSTLCITPPQSPDLVEPSTRTPVSPQVTDSKACTATDVLQSSAVVARALSGGAERGLLGLEPVPSSPCRAKGTSVIRHTGESPAACFPTIQTPDCRLSDSREGEEQLLGHFETLQDTHLTDSLLSTNLVSCQPCLHKSGGLLLTDKGQQAGWPGAVQTCSPKNYENDLPRKTTPLISVSVPAPPVLCQMIPVTGQSSMLPAFLKPPPQLSVGTVRPILAQAAPAPQPVFVGPAVPQGAVMLVLPQGALPPPAPCAANVMAAGNTKLLPLAPAPVFITSSQNCVPQVDFSRRRNYVCSFPGCRKTYFKSSHLKAHLRTHTGEKPFNCSWDGCDKKFARSDELSRHRRTHTGEKKFVCPVCDRRFMRSDHLTKHARRHMTTKKIPGWQAEVGKLNRIASAESPGSPLVSMPASA [Q62R], the “effect of a mutation on the interaction” value was “increasing interaction”.

— IntAct's records for PubMed 15774581
